Tested on: MS2 coat protein
Test: apparent KD of MS2 coat protein; designed switch direction (-1 OFF switch, 1 ON switch): -1; higher = weaker reporter binding
How it was run: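 Stalled E. coli RNA polymerase transcribed designed RNA switches on Illumina chips, which were then titrated with SNAP-549-labelled MS2 coat protein, doubling from 0.7 or 1.5 nM to 3 µM. Steps lasted from 0.8–1.5 h at the lowest concentration to 10–20 min at the highest. The apparent KD is each design's median over clusters of curve-fitted normalised fluorescence.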

[1] = Eterna round: R95, input ligand: FMN 200 uM
[2] = Eterna round: R95, input ligand: microRNA oligo, concentration not stated
[3] = Eterna round: R95, input ligand: none
[4] = input ligand: microRNA oligo, concentration not stated

Sequence | apparent KD of MS2 coat protein [2] [µM] | apparent KD of MS2 coat protein (input ligand: FMN 200 uM) [µM] | apparent KD of MS2 coat protein (input ligand: none) [µM] | also measured
CAUGAUCUUCGGAUCAUGUACAUGAGGAUCACCCAUGUGACGAGUAUAUCUUCAAACAAGCUUUUUGCUCGUCUUAU [Sensor v3 - Turn-off variant 1 - 23] (puzzle: Sensor v3, turn-off variant 1) | 0.0498 | – | – | apparent KD of MS2 coat protein [1]: 0.0416 µM; apparent KD of MS2 coat protein [3]: 0.0416 µM
CAUGAUUGGCGAGGAUAUUGACCUAGUUAGCGACGAGAAGGCGCCUGUCACAUGAGGAUCACCCAUGUGAAUCUGGUGAAAGAG [Ex NG1 #92] (Eterna round: R96, puzzle: Exclusion NG 1) | – | 0.0216 | 0.0183 | apparent KD of MS2 coat protein [4]: 0.0133 µM
CAUGAUUGGCGAGGAUAUUGAUCUAGUUGGCGACGAGAAGGCGCCUGUCACAUGAGGAUCACCCAUGUGAGUCUGGUGGAUGAG [Ex NG1 #87] (Eterna round: R96, puzzle: Exclusion NG 1) | – | 0.0214 | 0.0204 | apparent KD of MS2 coat protein [4]: 0.0165 µM
CAUGAUUGGCGAGGAUAUUGAUCUAGUUGGCGACGAGAAGGCGCCUGUCACAUGAGGAUCACCCAUGUGUGUCUGGUGAAUGAG [Ex NG1 #86] (Eterna round: R96, puzzle: Exclusion NG 1) | – | 0.0825 | 0.0633 | apparent KD of MS2 coat protein [4]: 0.0484 µM
CAUGCACAUGAGGAUCACCCAUGUCAGGAUAUCUAUCAUAGCAUCGAAAGAUGCGGGUAGAGAAGGGACAACCC [ChP Ext 10-04-2015 #10] (puzzle: Exclusion 1) | 0.0155 | – | – | –
CAUGUCCGAGGAUAUAUUAUGUGAAACAUGAGGAUCACCCAUGUUAUAUGAUGGAUGUAAAUAGAAGGCGGACGUG [Mat - Exclusion 5 - JL mod - D65] (puzzle: Exclusion 5) | 0.0316 | – | – | apparent KD of MS2 coat protein [1]: 0.0263 µM; apparent KD of MS2 coat protein [3]: 0.0345 µM
CAUUAUGUUGAGGAUAUGCGCCGGCUCGCUGACGCAGAAGGCGACACAUGAGGAUCACCCAUGUCAGUUCGCGA [salish99_ex6_r004_420] (Eterna round: R97, puzzle: Exclusion 6) | – | 0.0158 | 0.0145 | –
CAUUCACAUGAGGAUCACCCAUGUCAGGAUAUAGUCGAUAUAUGGAAACAUAUAUCGACUAGAAGGGACUAGCG [Jieuxxlusion 13 - Jieux - Exclusion 1] (Eterna round: R97, puzzle: Exclusion 1) | – | 0.152 | 0.0527 | –
CCAAGCUAAAUCAUUAACAACAUGAGGAUCACCCAUGUGUAAGCAAUUAUGUUUGGGCUCUUUAGUGCUCGUCUUAU [JR_STOV1_Sub043] (Eterna round: R97, puzzle: Sensor, turn-off variant 1) | – | 0.0157 | 0.0163 | –
CCAAGCUUGUUCAUUAACCACAUGAGGAUCACCCAUGUCUUGGCAAUUAUGACUUGCCCGUCAGGUGCUCGUCUUAU [Sensor-V1 #35] (Eterna round: R97, puzzle: Sensor, turn-off variant 1) | – | 0.0655 | 0.0713 | –
CCACCGCCGUCAGGAUAUAACAUGAGGAUCACCCAUGUGUGAAGCAUGAGAGACUCUAACAAGUGUUAGAAGGGACUUAUUGCG [Eternabot solution 36] (Eterna round: R96, puzzle: Exclusion NG 2) | – | 0.176 | 0.0758 | apparent KD of MS2 coat protein [4]: 0.0632 µM
CCACGACAUGAGGAUCACCCAUGUCAGGAUAUCCCUCAUUGUAUGAAAAUACAAUGAGGGAGAAGGGACGUGAC [SS1 Omei 2] (puzzle: Exclusion 1) | 0.0271 | – | – | –
CCAGCGUGUGUGAGGAUAUGCUGGUCCUUGGAUCAGCAGAAGGCACAUGAGGAUCACCCAUGUGAGAACGUUGG [JL bmx4 3.33] (puzzle: Brourd's mod of Exclusion 4) | 0.0176 | – | – | –
CCAGGCAGUGUGAGGAUAUGCUGGUGCUUGCAUCAGCAGAAGGCACAUGAGGAUCACCCAUGUGAAGAGCUUGG [Mat - Exclusion 4 - JL Mod - D97] (puzzle: Brourd's mod of Exclusion 4) | 0.0211 | – | – | –
CCAGGCUGUGUGAGGAUAUGCUGGUCCUUGGAUCAGCAGAAGGCACAUGAGGAUCACCCAUGUGAAUAGCUUGG [JL bmx4 3.26] (puzzle: Brourd's mod of Exclusion 4) | 0.0158 | – | – | –
CCAGGCUGUGUGAGGAUAUGCUGGUCCUUGGAUCAGCAGAAGGCACAUGAGGAUCACCCAUGUGAGGAGCUUGG [JL bmx4 3.28] (puzzle: Brourd's mod of Exclusion 4) | 0.0199 | – | – | –
CCAUCACAUGAGGAUCACCCAUGUGAGGAUAUGUUUUUGGUGCGUAUAAAGCCUGGGAACAGAAGGUACAGGGA [Eternabot (L2) Solution 50] (Eterna round: R97, puzzle: Exclusion 1) | – | 0.0153 | 0.0129 | –
CCAUGUGAGGAGGAUAUCGCCGCGCGAACCGAAUGAGAAGGUCUUACAUGAGGAUCACCCAUGUAAAGUACAUC [Eternabot (L1) Solution 1] (Eterna round: R97, puzzle: Exclusion 6) | – | 0.0209 | 0.0131 | –
CCCGAGGAAGGAUAUACAUGAGGAUCACCCAUGUGCGUUGGGACUGGCGUGGUCUUCAGUAGAAGGUCCGCGCC [Esdiza] (Eterna round: R97, puzzle: Exclusion 3) | – | 0.0487 | 0.0338 | –
CCCGGGCUUGUGAGGAUAUUGUGUGUGAAAGCGCGCGAGAAGGCACAUGAGGAUCACCCAUGUAAGGGCCCGGG [-34.6, -32.6 kcal, A 23%, 6bis-0] (Eterna round: R97, puzzle: Brourd's mod of Exclusion 4) | – | 0.0193 | 0.0859 | –
CCCGGGUCAGGAUAUCACUUAAGCGCAGUGAGCGUCUGAGAUGAGAAGGGACAUGAGGAUCACCCAUGUGUGGC [Eternabot (L2) Solution 66] (Eterna round: R97, puzzle: Exclusion 4) | – | 0.456 | 0.0937 | –
CCCUAGGGAGGAUAUCCAAUAUAUGACAUGAGGAUCACCCAUGUUUCCACUCGUACCUCCGGAGAAGGCCCAUACC [Ex5 #10] (Eterna round: R97, puzzle: Exclusion 5) | – | 0.028 | 0.0284 | –
CCCUCACAUGAGGAUCACCCAUGUCAGGAUAUCUAGUCAGACAGUAUAGCACUGCUGAAGAGAAGGGACGUAAA [Labiusce] (puzzle: Exclusion 1) | 0.017 | – | – | –
CCCUGACAUGAGGAUCACCCAUGUUAGGAUAUAACAUUUGACGCGACAGUGUGGAGUGUUAGAAGGGAUAUGGG [-28.4, -26.7 kcal, A 28%] (Eterna round: R97, puzzle: Exclusion 1) | – | 0.0299 | 0.0208 | –
CCCUUGUGAGGAUAUAGUAGUUGCACAUCGAUAGAGUAACUCUAGAAGGCACAUGAGGAUCACCCAUGUACGAA [Eternabot (L1) Solution 56] (Eterna round: R97, puzzle: Exclusion 4) | – | 0.0702 | 0.119 | –
CCGAAAAGGAAGGAUAUGCUAGACGAAAGUCUAGCAGAAGGUCCUACAUGAGGAUCACCCAUGUGGUCCUUCGG [Mat - Exclusion 6 - Eli Mod - D35] (Eterna round: R97, puzzle: Exclusion 6) | – | 1.73 | 0.448 | –
